Data: patent KR20230175116A (dated 2023)
Values belong to the binder of their own block, whether it stands above or below them.

Target: T1, DR3 on cells (DR3 stable cell line; DR3 on human PBMC T cells) (human, UniProt Q93038 25-417)
T1 construct: whole, on cells; Also used for the DR3 of hPBMC T cells in the NF-kB assays; also called 세포 표면에서 발현된 DR3; DR3 natural form
T1 sequence (looked up): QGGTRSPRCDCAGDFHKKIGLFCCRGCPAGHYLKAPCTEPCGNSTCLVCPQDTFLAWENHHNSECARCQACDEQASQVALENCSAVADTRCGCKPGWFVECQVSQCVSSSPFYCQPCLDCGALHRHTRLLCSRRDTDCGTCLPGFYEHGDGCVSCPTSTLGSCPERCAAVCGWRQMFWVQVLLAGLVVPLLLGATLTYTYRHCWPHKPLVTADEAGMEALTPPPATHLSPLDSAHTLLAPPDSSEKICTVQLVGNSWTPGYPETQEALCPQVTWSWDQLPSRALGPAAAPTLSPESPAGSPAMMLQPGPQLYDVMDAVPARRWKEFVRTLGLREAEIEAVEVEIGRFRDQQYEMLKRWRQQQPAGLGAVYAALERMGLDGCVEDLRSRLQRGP
Assay: FACS, DR3 stable cell line, 2 ug/ml mAb, anti-human IgG PE

binding result: binds
B1: 항-DR3 4-4 항체 (4-4 mAb) (antibody, V domains shown)
VH: EVQLVESGGGLVKPGGSLRLSCAASGFTFSDYYMSWIRQAPGKGLEWVSYISSSSSYTNYADSVKGRFTISRDNAKNSLYLQMNSLRAEDTAVYYCASNVDTAMVGAFDIWGQGTLVTVS
VL: DIEMTQSPSSVSASVGDTVTITCRASQHISNWLAWYQQKPGQAPKFLIYTASNLQSGVPSRFSGSGYGTDFTLTISGLQPEDFATYYCQQADSFPLTFGGGTKVDIK
notes: also called clone 4-4; clone 4-4 IgG1

binding result: binds
B2: 6-2 mAb (antibody, V domains shown)
VH: QVQLVQSGGGLVQPGGSLRLSCAASGFTFSSYSMNWVRQAPGKGLEWVSYISSSSSTIYYADSVKGRFTISRDNAKNSLYLQMNSLRAEDTAVYYCARWDGYCSGGSCYSGMDYWGQGTLVTVS
VL: not shown
notes: Human monoclonal IgG; also called clone 6-2; clone 6-2 IgG1

binding result: binds
B3: 6-15 mAb (antibody, V domains shown)
VH: B2 VH
VL: DIEMTQSPSSLSASVGDKVTITCQASQDISNYLNWYQQKPGKAPKLLIYDASNLETGVPSRFSGSGSGTDSTFTISSLQPEDIATYYCQQYDNLPLTFGGGTKVEIK
notes: Human monoclonal IgG (detected with anti-human IgG Fc); also called clone 6-15
